One block for each binder: values may come before it.
B1: β-catenin (natural protein, Mus musculus, UniProt Q02248 1-781, looked up)
chain: MATQADLMELDMAMEPDRKAAVSHWQQQSYLDSGIHSGATTTAPSLSGKGNPEEEDVDTSQVLYEWEQGFSQSFTQEQVADIDGQYAMTRAQRVRAAMFPETLDEGMQIPSTQFDAAHPTNVQRLAEPSQMLKHAVVNLINYQDDAELATRAIPELTKLLNDEDQVVVNKAAVMVHQLSKKEASRHAIMRSPQMVSAIVRTMQNTNDVETARCTAGTLHNLSHHREGLLAIFKSGGIPALVKMLGSPVDSVLFYAITTLHNLLLHQEGAKMAVRLAGGLQKMVALLNKTNVKFLAITTDCLQILAYGNQESKLIILASGGPQALVNIMRTYTYEKLLWTTSRVLKVLSVCSSNKPAIVEAGGMQALGLHLTDPSQRLVQNCLWTLRNLSDAATKQEGMEGLLGTLVQLLGSDDINVVTCAAGILSNLTCNNYKNKMMVCQVGGIEALVRTVLRAGDREDITEPAICALRHLTSRHQEAEMAQNAVRLHYGLPVVVKLLHPPSHWPLIKATVGLIRNLALCPANHAPLREQGAIPRLVQLLVRAHQDTQRRTSMGGTQQQFVEGVRMEEIVEGCTGALHILARDVHNRIVIRGLNTIPLFVQLLYSPIENIQRVAAGVLCELAQDKEAAEAIEAEGATAPLTELLHSRNEGVATYAAAVLFRMSEDKPQDYKKRLSVELTSSLFRTEPMAWNETADLGLDIGAQGEALGYRQDDPSYRSFHSGGYGQDALGMDPMMEHEMGGHHPGADYPVDGLPDLGHAQDLMDGLPPGDSNQLAWFDTDL
notes: β-catenin, Mus musculus, full length; in pGEX-TEV; source: E. coli BL21-Gold, purified (glutathione-agarose, TEV cleavage, Mono Q or Mono S, S200)
B4: αT-catenin head region (aa 1–659) (domain or fragment, Mus musculus, UniProt Q65CL1 1-659, looked up)
chain: MSAETPITLNMDTQDLQIQTFTVEKLLEPLIIQVTTLVNCPQNPSNRKKGRSKRARVLLASVEEATWNLLDKGEMIAKEATVLKEELAAALQEVRKESKALKVSAERFTDDPCYLPKREAVVQAARALLAAVTRLLVLADMIDVMCLLQHVSSFQRTFESLKNVSNKSDLQRTYQKLGKELESLDYLAFKRQQDLKSPSQRDEIAGARATLKENSPLLHSICSACLEHSDVASLKASKDTVCEEIQNALDVISNASQGIQNAPAPPEPQAATLGSAFDELENLIVLNPLTVTEEDVRPSLEKRLEAIISGAALLADSSCTRDLHRERIIAECNAIRQALQDLLTEYMSNTGKTERSNTLNTAIVNMSKKTRDLRRQLRKAIIDHISDSFLDTTVPLLVLIEAAKNGRVKEIKDYAAIFHEHTGRLVEVANLACSMSTNEDGIKIVRIAANHLETLCPQIINAALALASRPKSQVVKNTMEMYKRTWEHYIHVLTEAVDDITSIDDFLAVSESHILEDVNKCIIALRDQDADNLDRAAGAIRGRAARVAHIVAGEMDSYEPGAYTEGVMRNVNFLTSTVIPEFVTQVNVALDALSKNSLTALDDNQFVDISKKIYDTIHDIRCSVMMIRTPEELEDVSDLEDDHEVRSHTSIQTEGKTDR
notes: αT-catenin, Mus musculus, head region (N- and M-domains), aa 1-659; in pGEX-TEV; also called αT-catenin head (1–659); αT-catenin N1-M3 (aa 1–659); source: E. coli BL21-Gold, purified (glutathione-agarose, TEV cleavage, Mono Q or Mono S, S200)

Experiments:
[1] = biological target: B4; assay: ITC; β-catenin (110-150 μM) or β-catenin–Ncad_(cyto) complex (103-158 μM) injected into αT-catenin fragment in the cell; 25 °C; 20 mM Hepes pH 8.0, 150 mM NaCl, 1 mM TCEP; conditions: both partners purified
[2] = biological target: the molecule itself; assay: SEC; analytical SEC of 30 μM protein
[3] = biological target: T1, β-catenin–N-cadherin cytoplasmic tail complex (Mus musculus | , UniProt Q02248 1-781; P15116 746-906); assay: ITC; β-catenin (110-150 μM) or β-catenin–Ncad_(cyto) complex (103-158 μM) injected into αT-catenin fragment in the cell; 25 °C; 20 mM Hepes pH 8.0, 150 mM NaCl, 1 mM TCEP; conditions: both partners purified
T1 construct: β-catenin, Mus musculus, full length; N-cadherin cytoplasmic tail (Ncad_(cyto)); the methods name no plasmid for the N-cadherin tail; also called β-catenin–Ncad_(cyto); β-cat–Ncad_(cyto); source: β-catenin: E. coli BL21-Gold, purified
T1 sequence (looked up) 1: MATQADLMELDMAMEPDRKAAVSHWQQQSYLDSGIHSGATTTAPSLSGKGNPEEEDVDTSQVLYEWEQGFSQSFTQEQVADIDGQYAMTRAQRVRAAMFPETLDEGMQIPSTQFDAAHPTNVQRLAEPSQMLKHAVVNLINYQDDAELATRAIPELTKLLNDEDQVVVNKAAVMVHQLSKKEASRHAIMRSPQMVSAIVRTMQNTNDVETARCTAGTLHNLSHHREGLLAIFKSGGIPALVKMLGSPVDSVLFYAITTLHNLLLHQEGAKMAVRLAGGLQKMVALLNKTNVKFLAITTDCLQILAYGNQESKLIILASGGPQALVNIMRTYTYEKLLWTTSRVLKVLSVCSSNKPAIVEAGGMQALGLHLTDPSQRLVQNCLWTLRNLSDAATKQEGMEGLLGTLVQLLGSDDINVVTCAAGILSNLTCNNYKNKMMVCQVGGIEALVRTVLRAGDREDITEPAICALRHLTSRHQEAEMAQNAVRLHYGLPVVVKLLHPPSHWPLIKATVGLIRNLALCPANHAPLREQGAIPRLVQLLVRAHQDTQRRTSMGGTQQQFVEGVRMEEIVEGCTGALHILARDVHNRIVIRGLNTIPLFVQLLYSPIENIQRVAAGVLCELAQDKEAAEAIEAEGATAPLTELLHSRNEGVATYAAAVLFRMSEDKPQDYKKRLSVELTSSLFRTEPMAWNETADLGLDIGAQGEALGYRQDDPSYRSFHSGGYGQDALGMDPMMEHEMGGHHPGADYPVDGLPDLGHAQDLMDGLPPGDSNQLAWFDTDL
T1 sequence (looked up) 2: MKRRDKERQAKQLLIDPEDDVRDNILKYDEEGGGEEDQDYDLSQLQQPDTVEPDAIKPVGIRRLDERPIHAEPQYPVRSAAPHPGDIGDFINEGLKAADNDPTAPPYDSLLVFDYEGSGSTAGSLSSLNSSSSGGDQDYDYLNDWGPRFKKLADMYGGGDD

[4] = biological target: B1; assay: as above; conditions: both partners purified
[5] = biological target: T2, vinculin D1 (Mus musculus, UniProt Q64727); assay: ITC
T2 chain: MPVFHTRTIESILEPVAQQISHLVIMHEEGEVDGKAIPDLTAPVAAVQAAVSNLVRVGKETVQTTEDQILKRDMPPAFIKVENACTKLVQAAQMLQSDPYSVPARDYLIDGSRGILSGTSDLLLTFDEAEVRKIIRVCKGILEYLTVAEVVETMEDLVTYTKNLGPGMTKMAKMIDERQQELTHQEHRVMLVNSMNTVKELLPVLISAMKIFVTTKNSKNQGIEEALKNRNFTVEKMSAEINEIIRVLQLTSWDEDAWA

Binder: B1
dH [1]: -14.6 ± 2.1 kcal/mol

B2: αT-catenin V94D N1-N2 (domain or fragment, Mus musculus, UniProt Q65CL1 1-259, looked up)
chain: MSAETPITLNMDTQDLQIQTFTVEKLLEPLIIQVTTLVNCPQNPSNRKKGRSKRARVLLASVEEATWNLLDKGEMIAKEATVLKEELAAALQEDRKESKALKVSAERFTDDPCYLPKREAVVQAARALLAAVTRLLVLADMIDVMCLLQHVSSFQRTFESLKNVSNKSDLQRTYQKLGKELESLDYLAFKRQQDLKSPSQRDEIAGARATLKENSPLLHSICSACLEHSDVASLKASKDTVCEEIQNALDVISNASQGI
notes: αT-catenin N1-N2 (aa 1-259) with V94D, a point mutation linked to arrhythmogenic ventricular cardiomyopathy in humans; also called V94D mutant; source: E. coli BL21-Gold, purified (glutathione-agarose, TEV cleavage, Mono Q or Mono S, S200)
stoichiometry N [2]: 2

Kd [3]: 6.9 ± 12 nM
B3: αT-catenin N1-N2 (aa 1–259) (domain or fragment, Mus musculus, UniProt Q65CL1 1-259, looked up)
chain: MSAETPITLNMDTQDLQIQTFTVEKLLEPLIIQVTTLVNCPQNPSNRKKGRSKRARVLLASVEEATWNLLDKGEMIAKEATVLKEELAAALQEVRKESKALKVSAERFTDDPCYLPKREAVVQAARALLAAVTRLLVLADMIDVMCLLQHVSSFQRTFESLKNVSNKSDLQRTYQKLGKELESLDYLAFKRQQDLKSPSQRDEIAGARATLKENSPLLHSICSACLEHSDVASLKASKDTVCEEIQNALDVISNASQGI
notes: αT-catenin, Mus musculus, N1-N2, aa 1-259; in pGEX-TEV; also called αT-catenin WT N1-N2; αT-catenin N1-N2 (1–259); source: E. coli BL21-Gold, purified (glutathione-agarose, TEV cleavage, Mono Q or Mono S, S200)

Binder: B4
Kd [4]: 264 ± 109 nM
Kd [3]: 5.6 ± 0.6 nM

Kd [5]: ~250 nM
B5: 2I27–αT-catenin M1-M3–2I27 259-667 (protein)
chain: IQNAPAPPEPQAATLGSAFDELENLIVLNPLTVTEEDVRPSLEKRLEAIISGAALLADSSCTRDLHRERIIAECNAIRQALQDLLTEYMSNTGKTERSNTLNTAIVNMSKKTRDLRRQLRKAIIDHISDSFLDTTVPLLVLIEAAKNGRVKEIKDYAAIFHEHTGRLVEVANLACSMSTNEDGIKIVRIAANHLETLCPQIINAALALASRPKSQVVKNTMEMYKRTWEHYIHVLTEAVDDITSIDDFLAVSESHILEDVNKCIIALRDQDADNLDRAAGAIRGRAARVAHIVAGEMDSYEPGAYTEGVMRNVNFLTSTVIPEFVTQVNVALDALSKNSLTALDDNQFVDISKKIYDTIHDIRCSVMMIRTPEELEDVSDLEDDHEVRSHTSIQTEGKTDRAKMTQLPE
modifications: 2I27 fusion at both ends
